According to the supplement of paper PMC9170038:

System: MS2 coat protein
Assay: apparent KD of MS2 coat protein; designed switch direction (-1 OFF switch, 1 ON switch): -1; higher = weaker reporter binding
Procedure, shortened: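 Apparent KD, taken as the median over clusters for each design, was obtained by curve-fitting normalised cluster fluorescence. Designed RNA switches had been transcribed on Illumina chips by stalled E. coli RNA polymerase and titrated with SNAP-549-labelled MS2 coat protein, doubling from 0.7 or 1.5 nM to 3 µM.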

[1] = Eterna round: R95, input ligand: microRNA oligo, concentration not stated
[2] = input ligand: microRNA oligo, concentration not stated
[3] = Eterna round: R95, input ligand: FMN 200 uM
[4] = Eterna round: R95, input ligand: none

| Sequence | apparent KD of MS2 coat protein [1] [nM] | apparent KD of MS2 coat protein (input ligand: FMN 200 uM) [nM] | apparent KD of MS2 coat protein [2] [nM] | apparent KD of MS2 coat protein (input ligand: none) [nM] | apparent KD of MS2 coat protein [3] [nM] | apparent KD of MS2 coat protein [4] [nM] |
| --- | --- | --- | --- | --- | --- | --- |
| GGCUAGUCAGGAUAUACGAACAUGUCAAAAGACGUGAAGGGACAUGAGGAUCACCCAUGUAGAAGGGACUAGCA [salish99_ex2_r3_001] (puzzle: Exclusion 2) | 23.5 | – | – | – | – | – |
| GUGUACGGAGGAUAUGCUGGAAUCUAGCGAAGCUAGGUUCCACAUGAGGAUCACCCAUGUAGAAGGCUGUACAC [Dot plot directed A v5] (puzzle: Exclusion 2) | 21.1 | – | – | – | – | – |
| CCGAAUAUGCAGGAUAUCGUAUCGGAAACGAUACGAGAAGGGUAAACAUGAGGAUCACCCAUGUUCCUUAACGG [Fiskers Ex 6 - 18] (puzzle: Exclusion 6) | 17.7 | – | – | – | – | – |
| ACGCGAGUAGGAGGAUAUUCCGAGCGCGGGCCGGGAGAAGGCCUAGAUCGUGAACAUGAGGAUCACCCAUGUGGGAUGAUCUAA [Ededaranri] (Eterna round: R96, puzzle: Exclusion NG 1) | – | 8.23 | 94.9 | 313 | – | – |
| UUUUAACAUGAGGAUCACCCAUGUGAGGAUAUCGAUUUUUUUAUUAAUAUUAAUAAAACGAGAAGGCACAUUUU [JMF 19] (puzzle: Exclusion 1) | 73.5 | – | – | – | – | – |
| GGUACUCAAAGAGUACCAAUACGAACAUGAGGAUCACCCAUGUAGGAUAUGCUACUCAAAGAGUAGCAGAAGGAUAUGAUGUAU [Far Half Aptamer v17] (Eterna round: R96, puzzle: Exclusion NG 3) | – | – | 27.6 | – | – | – |
| GGGCCCGGUGUGAGGAUAUGCUCGGGUAAAUCUGGGUAGAAGGCACAUGAGGAUCACCCAUGUAAGCCGGGCCC [-34.4, -32.3 kcal, A 23%, 7bis-0] (Eterna round: R97, puzzle: Brourd's mod of Exclusion 4) | – | 15.2 | – | 19.3 | – | – |
| GGAUAAAAGUCAGGAUAUACGUAUCGCUAGCGAGUAGAAGGGACACAUGAGGAUCACCCAUGUGAGUUCUCAAUAAGAAACACG [Prohibition 61 - Jieux - Exclusion NG 1] (Eterna round: R96, puzzle: Exclusion NG 1) | – | 45.5 | 16.3 | 19.5 | – | – |
| GAUUGACAUGAGGAUCACCCAUGUGAGGAUAUCGGCCGGACCGUGCUGGCUUCCGUCGCGAGAAGGCGCAUAGG [Exclusion 1 V41] (puzzle: Exclusion 1) | 35.5 | – | – | – | 78.2 | 38.9 |
| CCCAUGUCAGGAUAUUAAUUGAGCAGGAAGCCCUGUUCACUUGAGAAGGGACAUGAGGAUCACCCAUGUAAAAC [Aesvea] (Eterna round: R97, puzzle: Exclusion 4) | – | 30.1 | – | 384 | – | – |
| GGUCGACAUGAGGAUCACCCAUGUCAGGAUAUCGUCACUGGAGCUUCGGCUCCAGUGACGAGAAGGGACAUAAU [E1/14-A1] (Eterna round: R97, puzzle: Exclusion 1) | – | 39.5 | – | 39.2 | – | – |
| UGGUAAUCAGUUAGGAUAUCAUCCGGCGUUGUCGGUGAGAAGGAACAUGAGGAUCACCCAUGUAUCGAUUUUAG [BmEX4 B.13] (Eterna round: R97, puzzle: Brourd's mod of Exclusion 4) | – | 26.5 | – | 19 | – | – |
| UGGUGGAAGCAGGAUAUGCUUGUAUUAUUGAUUGCAGAAGGGCUAACAUGAGGAUCACCCAUGUAAGAGGUGUU [JR_E6_Sub056] (puzzle: Exclusion 6) | 289 | – | – | – | 303 | 327 |
| ACUUAUAGAGGAUAUACAGUUUAUUACAUGAGGAUCACCCAUGUUCUUCAAUGUCCUAAAGUAGAAGGCUAAGGAA [Mat - Exclusion 5 - Eli Mod - D12] (Eterna round: R97, puzzle: Exclusion 5) | – | 18.8 | – | 16.2 | – | – |
| AGCCCUGCAGGAUAUGCCCGGGAUAACAUGAGGAUCACCCAUGUGACCGGUUGUUAGACUGCAGAAGGGCAUGGGA [salish99_ex5_r4_302] (Eterna round: R97, puzzle: Exclusion 5) | – | 14.8 | – | 12.2 | – | – |
| GGUGGUAUGUCAGGAUAUACAGCCUAAAUGGAAGUAGAAGGGACACAUGAGGGUCACCCAUGUGACAUGAGGAUCACCCAUGUA [Hi3 10-05-2015] (Eterna round: R96, puzzle: Exclusion NG 1) | – | 64 | 41.1 | 60.7 | – | – |
| GCAGAUCACGUGAGGAUAUCGUCUACCUCGGUAGUCGAGAAGGCACAUGAGGAUCACCCAUGUGAGUGAUCUGC [Omei Ex4B B2] (Eterna round: R97, puzzle: Brourd's mod of Exclusion 4) | – | 13.6 | – | 17.6 | – | – |
| ACAUCCUUAGUAAGGAUAUCGUCCGCCGAGGCGGGCGAGAAGGUACAUGAGGAUCACCCAUGUAUGCAGCAGAU [Eternabot (L2) Solution 59] (Eterna round: R97, puzzle: Brourd's mod of Exclusion 4) | – | 19.1 | – | 14 | – | – |

| Sequence | apparent KD of MS2 coat protein [1] [nM] | apparent KD of MS2 coat protein (input ligand: FMN 200 uM) [nM] | apparent KD of MS2 coat protein [2] [nM] | apparent KD of MS2 coat protein (input ligand: none) [nM] | apparent KD of MS2 coat protein [3] [nM] | apparent KD of MS2 coat protein [4] [nM] |
| --- | --- | --- | --- | --- | --- | --- |
| AGUACUAACACGAAAGUGUUAGUACAAUAAGCUUGUGUUACAUGAGGAUCACCCAUGUCCUCAUAAGCUCGUCUUAG [Mat - Sensor v3 - Turn-off var 2 - D50] (puzzle: Sensor v3, turn-off variant 2) | 351 | – | – | – | 45.9 | 45.4 |
| UACAUGAGGAUCACCCAUGUUUUGUCGUGUAUGGUAUUUAUCUAGGAUAUCAUUUUAUUUAGUUAUGAGAAGGAGAAUAUUAAU [JMF's solution 79] (Eterna round: R96, puzzle: Exclusion NG 3) | – | – | 36.1 | – | – | – |
| AAUAAGUGAGGAUAUACGUCUGGACCCGGGAGGGAAAUAAAACAUGAGGAUCACCCAUGUAGAAGGCACAAUAA [Excls2-III] (puzzle: Exclusion 2) | 13.5 | – | – | – | 17.5 | 16.9 |
| ACAUGAGGAUCACCCAUGUCAGGUGGGUCCUCUCCGGCUGUUGAGGAUAUAGUCCGGUAUCCGCGCUAGAAGGUGAGGGCUGGC [Aenatbe mod 16] (Eterna round: R96, puzzle: Exclusion NG 3) | – | 42.8 | 23.8 | 38.4 | – | – |
| ACCUAACAUGAGGAUCACCCAUGUCAGGAUAUCCGGCCUAUGGAAACAUAGGAAGAACGGAGAAGGGACAGAGG [ChP 04-04-2015 #9] (puzzle: Exclusion 1) | 35 | – | – | – | 69.5 | 43.1 |
| CUGGACCCGGCAGGAUAUAUUGUGGGCGGGCGUGGAACGACAUGAGGAUCACCCAUGUGAUUGAGGUAGAAGGGCCGAGAGGUC [Excl-NG2-LRO20] (Eterna round: R96, puzzle: Exclusion NG 2) | – | 38.5 | 30.6 | 47.7 | – | – |
| CUUCGUAUAGAGGAUAUAGGUUACUACGGUAUCCUAGAAGGCUGUACAUGAGGAUCACCCAUGUACUUCAGAUC [Exclusion 6 - B - 13:d] (puzzle: Exclusion 6) | 12.2 | – | – | – | – | – |
| UGCCUAUGAGGAUAUACAUUGAAUAAGAUUCAUGUAAAACUACAUGAGGAUCACCCAUGUAGAAGGCAUGGGCU [Mat - Exclusion 2 - JL Mod - D70] (Eterna round: R97, puzzle: Exclusion 2) | – | 29 | – | 19.1 | – | – |
| AGUACAUGAGGAUCACCCAUGUCAGUUAUCAAUGGCACGCCUAAGGAUAUUGAGCGUCAAAGGCUCAAGAAGGUAGCUUUAUGC [Eternabot solution 12] (Eterna round: R96, puzzle: Exclusion NG 3) | – | 13.7 | 16.7 | 25.6 | – | – |
| AGUUAUUCAGGAUAUGGUGUGUUAUACAUGAGGAUCACCCAUGUGGAUCCUGGUUAGGCCUCAGAAGGGAAUGUUA [salish99_ex5_r4_126] (Eterna round: R97, puzzle: Exclusion 5) | – | 412 | – | 435 | – | – |
| GCCUCACUUGAGGAUCACCCAAGUCAGGAUAUUCACUGAACUGCGUAACAGUUCGGCCGAAGAAGGGAUUCGGG [Uscedian] (Eterna round: R97, puzzle: Exclusion 1) | – | 35.6 | – | 96.5 | – | – |
| UCAAGUAUGUAGGAUAUCGAUGUCCUCGGACAUCGAGAAGGACGUACAUGAGGAUCACCCAUGUAACUUGCAUG [Exclusion 6 - B - 10:b] (puzzle: Exclusion 6) | 44.3 | – | – | – | – | – |
| AACUCGUUAGGAUAUACCGCCAACGAUACCUCGUGAAACAUACAUGAGGAUCACCCAUGUAGAAGGAGCGAGCA [Vearbe] (puzzle: Exclusion 2) | 15.7 | – | – | – | – | – |
| UCACGGGACUGAGGAUAUACAUUUAUUAUUUUAGUAGAAGGCAGAAAGUUAGUUUUUUCACUAUACAUGAGGAUCACCCAUGUU [JR_ExcNG1_Sub085] (Eterna round: R96, puzzle: Exclusion NG 1) | – | 21.2 | 20.4 | 29.1 | – | – |
| UUUAAGGGAAUUAAGAUCACAUGAGGAUCACCCAUGUAUAUAUAGGAUAUCAGCUCGAUUAGAGCUGAGAAGGAUAUAUACAUA [ExNG3/6-A1] (Eterna round: R96, puzzle: Exclusion NG 3) | – | 126 | 79.7 | 165 | – | – |
| UCAUGGUAGCAGGAUAUGCUAGAAAUUUUUUAUGCAGAAGGGCUUACAUGAGGAUCACCCAUGUGUUAGGUCUA [JR_E6_Sub070] (puzzle: Exclusion 6) | 50.8 | – | – | – | 47.2 | 48.5 |
| GAUUAUGCGAGCUUUAGGGACAUGAGGAUCACCCAUGUUCGUCUUAUUAGUCUGAGUGCACUGACAUACCUAAAUCU [JMF 85] (puzzle: Sensor v3, turn-off variant 1) | 22 | – | – | – | 15.4 | 16.7 |
